Results reported in paper PMC10397247.
One block for each binder: values may come before it.

How the values were obtained:
Test in all cases: two-hybrid library CCNG1;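 further: natural log of median RNA to DNA barcode read ratio; higher means stronger binding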
P5A-bP = target: T1, P5A-bP
T1 chain: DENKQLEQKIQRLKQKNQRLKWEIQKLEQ

P1A-bP = target: T2, P1A-bP
T2 chain: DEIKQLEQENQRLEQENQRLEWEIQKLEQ

P12A-bP = target: T3, P12A-bP
T3 chain: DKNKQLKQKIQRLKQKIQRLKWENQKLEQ

P7A-bP = target: T4, P7A-bP
T4 chain: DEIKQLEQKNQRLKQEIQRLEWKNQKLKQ

P4A-bP = target: T5, P4A-bP
T5 chain: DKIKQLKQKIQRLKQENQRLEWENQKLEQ

P8A-bP = target: T6, P8A-bP
T6 chain: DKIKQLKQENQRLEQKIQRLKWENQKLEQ

P9A-bP = target: T7, P9A-bP
T7 chain: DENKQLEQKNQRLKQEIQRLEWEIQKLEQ

P2A-bP = target: T8, P2A-bP
T8 chain: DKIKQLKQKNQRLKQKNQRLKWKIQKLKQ

P3A-bP = target: T9, P3A-bP
T9 chain: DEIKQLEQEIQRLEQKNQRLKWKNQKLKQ

P6A-bP = target: T10, P6A-bP
T10 chain: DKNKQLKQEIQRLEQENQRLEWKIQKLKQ

4H56-bH = target: T11, 4H56-bH
T11 chain: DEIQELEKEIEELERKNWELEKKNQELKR

4H2760-bH = target: T12, 4H2760-bH
T12 chain: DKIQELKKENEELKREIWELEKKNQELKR

4H3364-bH = target: T13, 4H3364-bH
T13 chain: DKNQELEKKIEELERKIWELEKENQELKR

4H2518-bH = target: T14, 4H2518-bH
T14 chain: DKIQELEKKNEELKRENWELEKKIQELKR

4H3381-bH = target: T15, 4H3381-bH
T15 chain: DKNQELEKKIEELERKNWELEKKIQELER

4H730-bH = target: T16, 4H730-bH
T16 chain: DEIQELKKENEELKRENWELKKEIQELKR

4H2931-bH = target: T17, 4H2931-bH
T17 chain: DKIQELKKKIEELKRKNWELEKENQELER

4H949-bH = target: T18, 4H949-bH
T18 chain: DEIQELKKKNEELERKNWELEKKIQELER

4H264-bH = target: T19, 4H264-bH
T19 chain: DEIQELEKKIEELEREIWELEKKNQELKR

4H2859-bH = target: T20, 4H2859-bH
T20 chain: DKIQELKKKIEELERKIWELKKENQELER

4H2585-bH = target: T21, 4H2585-bH
T21 chain: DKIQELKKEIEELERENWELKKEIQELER

4H932-bH = target: T22, 4H932-bH
T22 chain: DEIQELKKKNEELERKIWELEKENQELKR

4H349-bH = target: T23, 4H349-bH
T23 chain: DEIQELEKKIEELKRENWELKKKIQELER

4H3041-bH = target: T24, 4H3041-bH
T24 chain: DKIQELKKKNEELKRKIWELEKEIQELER

4H796-bH = target: T25, 4H796-bH
T25 chain: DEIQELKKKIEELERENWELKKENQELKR

4H2444-bH = target: T26, 4H2444-bH
T26 chain: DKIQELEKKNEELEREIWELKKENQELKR

4H3297-bH = target: T27, 4H3297-bH
T27 chain: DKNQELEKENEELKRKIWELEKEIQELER

4H2253-bH = target: T28, 4H2253-bH
T28 chain: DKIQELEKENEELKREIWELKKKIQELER

4H235-bH = target: T29, 4H235-bH
T29 chain: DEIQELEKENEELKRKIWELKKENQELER

interaction score (P5A-bP): -1.95
interaction score (P1A-bP): -0.938
interaction score (P12A-bP): -1.39
interaction score (P7A-bP): -1.24
interaction score (P4A-bP): -1.3
interaction score (P8A-bP): -1.36
interaction score (P9A-bP): -0.693
interaction score (P2A-bP): -1.47
interaction score (P3A-bP): 1.06
interaction score (P6A-bP): -1.09
B1: P12A-bP (peptide)
chain: DKNKQLKQKIQRLKQKIQRLKWENQKLEQ

interaction score (4H56-bH): -2.53
interaction score (P12A-bP): -0.712
interaction score (P7A-bP): -1.72
interaction score (4H2760-bH): 0.899
interaction score (4H3364-bH): 0.0509
interaction score (4H2518-bH): 0.157
interaction score (4H3381-bH): 0.131
interaction score (4H730-bH): -0.37
interaction score (4H2931-bH): -0.195
interaction score (4H949-bH): -0.427
interaction score (4H264-bH): 0.653
interaction score (4H2859-bH): 0.651
interaction score (4H2585-bH): -1.52
interaction score (4H932-bH): -0.937
interaction score (4H349-bH): -0.0717
interaction score (4H3041-bH): 0.872
interaction score (4H796-bH): -0.124
interaction score (4H2444-bH): -0.045
interaction score (4H3297-bH): 0.617
interaction score (4H2253-bH): 0.888
interaction score (4H235-bH): 0.172
B2: 4H2253-bH (peptide)
chain: DKIQELEKENEELKREIWELKKKIQELER
